± gives the standard deviation of the averaged measurements.
Assays:
[1] = PET hydrolysis, aromatic products released after 48 h (umol product/mg enzyme); higher = more PET depolymerization activity
Procedure, shortened: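 The measure of PET hydrolysis activity is aromatic product released into the supernatant, given per mg enzyme. Nickel-purified, SUMO-cleaved enzyme without tag was added at 5 μg (50 μL) to 3.5 mg amorphous PET film or crystalline PET powder in 450 μL of citrate, phosphate or glycine buffer spanning pH 4.5 to 8.5. After 48 h at 40 or 60 °C in sealed plates without shaking, absorbance at 260 and 280 nm was taken against buffer blanks.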

[2] = melting temperature (DSF); higher = more thermostable
Procedure, shortened: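 Candidate enzymes were expressed in E. coli C41(DE3), purified on nickel beads and released by SUMO protease cleavage. For differential scanning fluorimetry, 45 μL enzyme (0 to 0.3 mg/mL) was mixed with 5 μL 5X Sypro Orange in sealed PCR plates on a Bio-Rad CFX96 instrument. Fluorescence was read from 25 °C in steps of 0.3 °C per cycle (ramp 0.3 °C/s) for 250 cycles. The read-out is melting temperature.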

[3] = purified protein yield per well (BCA); higher = higher soluble expression
Procedure, shortened: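 Candidate enzymes were made in 2 mL autoinduction cultures of E. coli C41(DE3) with 100 µg/mL kanamycin, at 37 °C for 2 h and then 18 °C for 40 h, and purified with Ni-charged magnetic beads and SUMO protease cleavage. The Pierce Rapid Gold BCA kit gave purified protein yield per well. Values lower than 25 ug (0.1 mg/mL) are below the detection threshold.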

[4] = substrate: aFilm, 40 °C, pH 4.5
[5] = substrate: aFilm, 40 °C, pH 5.5
[6] = substrate: aFilm, 40 °C, pH 6.5
[7] = substrate: aFilm, 40 °C, pH 7.5
[8] = substrate: aFilm, 60 °C, pH 4.5
[9] = substrate: aFilm, 60 °C, pH 5.5
[10] = substrate: aFilm, 60 °C, pH 6.5
[11] = substrate: aFilm, 60 °C, pH 7.5
[12] = substrate: cryPow, 40 °C, pH 4.5
[13] = substrate: cryPow, 40 °C, pH 5.5
[14] = substrate: cryPow, 40 °C, pH 6.5
[15] = substrate: cryPow, 40 °C, pH 7.5
[16] = substrate: cryPow, 60 °C, pH 4.5
[17] = substrate: cryPow, 60 °C, pH 5.5
[18] = substrate: cryPow, 60 °C, pH 6.5
[19] = substrate: cryPow, 60 °C, pH 7.5

ADNPYQRGPDPTAESVRASRGTFATTQVTVPAGNGFGGGVIYHPTDTSQGTFGAVAIVPGYTATWAAEGAWMGHWLASFGFVVIGVDTINRNDWDTARGTQLLAALDYLTQQSPVRNRVDASRAAVMGHSMGGGGAMSAALRRPSLKAAVGLAPFSPSQNLTNTRVPTMLIAGQNDGTTTPASISTLYNGIPASTESAYLEFAGAGHGFPTSNNPLMMRVVIPWLKIFVDNDTRYSQFLCPLTDRTGITQYRSTCPLTPPGAPTSPPTTTAPPTPTTSPSVTPSTSPSATPTTPAPDGACRATYRTTNSWPGGYQAEVTVTAGNSPINGWTVRWTLGSGQSISQVWNGTLTTSGSAVTVRNVSYNGSLQPGTSTTFGFIGGGTPSTPVLACVSP [ESM018]
PET hydrolysis [1, 4]: < 3 | PET hydrolysis [1, 5]: < 3 | PET hydrolysis [1, 6]: < 3 | PET hydrolysis [1, 7]: < 3 | PET hydrolysis [1, 8]: < 3 | PET hydrolysis [1, 9]: < 3 | PET hydrolysis [1, 10]: < 3 | PET hydrolysis [1, 11]: < 3 | PET hydrolysis [1, 12]: < 3 | PET hydrolysis [1, 13]: 3 | PET hydrolysis [1, 14]: 11 ± 1.4 | PET hydrolysis [1, 15]: 30 ± 1.4 | PET hydrolysis [1, 16]: < 3 | PET hydrolysis [1, 17]: < 3 | PET hydrolysis [1, 18]: 7 ± 9.9 | PET hydrolysis [1, 19]: < 3 | melting temperature [2]: 61.3 C | purified protein yield per well [3]: 530 µg

ADNPYQRGPDPTLASVAANRGTFATAQLSVPGDGFGSGVIYYPTDTSQTFGAVAIVPGYSALFSVEEAWMGHWLASFGFVVIGIETISRSDSADARATQLLAALDYLTQRSSVRSRVDASRLSIIGHSAGGAGVLTAVLRRPTLKAAVGLAPGSPVGNYNLSSDRVPTMFISGQRDTTVSQSYLNGIYPTIPASTPSAWVELTGGDHLFPTRANTNMMRVLIPWLKIFVDNDTRYTQFLCPLMDSSGISMYRNKCPYVPTSPSPSPSTSPSPSVSPSPSPSASPSPSPSPSTSPSPQPSGACSATYRTVNSWSGGYQAEVTVTAGSSAINRWSVRWTLSSGQSISQVWNGTLSAGGSSVTVANASYNGSLPASGTTTFGFLANGAPSTPTLTCTSP [ESM034]
PET hydrolysis [1, 4]: < 3 | PET hydrolysis [1, 5]: < 3 | PET hydrolysis [1, 6]: < 3 | PET hydrolysis [1, 7]: < 3 | PET hydrolysis [1, 8]: < 3 | PET hydrolysis [1, 9]: < 3 | PET hydrolysis [1, 10]: < 3 | PET hydrolysis [1, 11]: < 3 | PET hydrolysis [1, 12]: < 3 | PET hydrolysis [1, 13]: < 3 | PET hydrolysis [1, 14]: < 3 | PET hydrolysis [1, 15]: < 3 | PET hydrolysis [1, 16]: < 3 | PET hydrolysis [1, 17]: < 3 | PET hydrolysis [1, 18]: < 3 | PET hydrolysis [1, 19]: < 3 | melting temperature [2]: 59.8 C | purified protein yield per well [3]: 392 µg

ADNPYQRGPDPTLASVAASRGPFATTQATVPPGNGFNGGYVYYPTDTSLGTWGAVAIVPGYSALFANEEAWMGPWLASFGFVVLGIETNSRNDGADARATQLLAALDYLTQSSPVRNRVDPNRLSVMGHSAGGAGTLMAALRRPSLKTAVGLAPGAPGNSLNMSTTKVPTMLISGQNDGTVTPSYVQGIYNTLPASVEHAWAELAGNDHLSFTRPNPTEMRILIPWLKIFLDNDTRYTQFLCPLADSTGVSRYNSTCPLVPPGVPTSPPTTPPTSTPPPTGPPTSPPPPTTTPPPAGGACTATYRTVGSWSGGFQGEVTVTAGSAAINGWTVRLDLGGGQSISQVWNGTLSTSGSTATVRNVSYNGSLAAAGSTTFGFLGSGTPPAPTPTCTSP [ESM005]
PET hydrolysis [1, 12]: < 3 | PET hydrolysis [1, 13]: < 3 | PET hydrolysis [1, 14]: < 3 | PET hydrolysis [1, 15]: < 3 | PET hydrolysis [1, 16]: < 3 | PET hydrolysis [1, 17]: < 3 | PET hydrolysis [1, 18]: < 3 | PET hydrolysis [1, 19]: < 3 | melting temperature [2]: 67 C | purified protein yield per well [3]: 88.4 µg

ADNPYQRGPDPTLASVAASRGTFATAQVNVPGGNGFASGVIYYPTDTTQGTFGAVAIVPGYSALFANEEAWMGPWLASFGFVVIGIETNSRTDSADARGTQLLAALDYLTQRSPVRDRVDPNRLSVVGHSAGGAGVLSAVVRRPSLKAAIGLAPGSPVGNYDLSTAKVPTMFISGQRDTTVTQSYLNGLYSTIPAALPSAWVEIAGVDHLFATRANNTEMRVLIPWLKIWLDNDTRYPQFLCPLMDSTNISMYRNKCPYVPPGGGPSPSPSATPSPSVTPSPSPSPSPSPSPSPSPTPTPGACTATYRTVNSWGGGYQGEVTVKAGASAVNGWTVRWTLNAGQTVSQVWNGTLSTSGSSVTVKNASYNGSLPPAGTTVFGFLANGTPATPALTCASP [ESM009]
PET hydrolysis [1, 12]: < 3 | PET hydrolysis [1, 13]: < 3 | PET hydrolysis [1, 14]: < 3 | PET hydrolysis [1, 15]: < 3 | PET hydrolysis [1, 16]: < 3 | PET hydrolysis [1, 17]: < 3 | PET hydrolysis [1, 18]: < 3 | PET hydrolysis [1, 19]: < 3 | melting temperature [2]: 58.6 C | purified protein yield per well [3]: 358 µg

ADNPYQRGPDPTLASVSAQRGTFATAQVAVPAGDGFGGGMIYYPTDTSQGTFGAVAIVPGYTARFSVEEAWMGHWLASFGFVVIGVETNSTNDFDTARGTQLLAALDYLTQRSSVRDRVDASRQSVVGHSMGGGGALYAAGQRASLKAAVGLAPYKPSGNPTNVRVPTMIISGQNDTVVTPSYATGLYNTLPATTESAYMEFTGADHLFPTRANTLEMRILIPWLKIFVDSDNRYSQFLCPLQDSTGIRGYRSTCPFLPNPTTSPSTTAPTTPPTTPPTTPPTGACSATYRTVNSWPGGFQGEVTVSAGSTPVDGWAVRWTLASGQAVTQVWNGALSVSGSAVTVRNTTYNGSLGANASTTFGFLASGSPTPVSLTCTSP [ESM033]
PET hydrolysis [1, 12]: 9 | PET hydrolysis [1, 13]: 25 | PET hydrolysis [1, 14]: 35 | PET hydrolysis [1, 15]: 6 | PET hydrolysis [1, 16]: < 3 | PET hydrolysis [1, 17]: < 3 | PET hydrolysis [1, 18]: < 3 | PET hydrolysis [1, 19]: < 3 | melting temperature [2]: 53.8 C | purified protein yield per well [3]: 594 µg

ADNPYQRGPDPTLASVSATRGTFATAQVSVPAGNGFASGVIYYPTDTSQGTFGGVAIVPGYSALFANEEAWMGPWLASFGFVVIGIETNSRTDSADARGTQLLAALDYLTQRSAVRDRVDPNRLSVIGHSAGGAGVLSALLRRPTLKAAVGLAPGSPVGDYSLYNDRVPTMFISGERDTTVTRSYLNGLYTTIPASTPSAWVEITGVDHLFATRANTTEMRVLIPWLKIFLDNDTRYTQFLCPQLADPGNVSMYRNKCPYVPPGGSSPSASPSTSPSASPSTSPSASPSVSPSPSPSPSPSASPSTSRACTASYRTVNSWSGGFQGEVTVTAGTSAINGWTVGWTLSGGQTINQLWNGTLSANGSAVRVTNVSYNGSIPASGSSTFGFLGTGTPSNPTLTCTSP [ESM040]
PET hydrolysis [1, 12]: < 3 | PET hydrolysis [1, 13]: < 3 | PET hydrolysis [1, 14]: < 3 | PET hydrolysis [1, 15]: < 3 | PET hydrolysis [1, 16]: < 3 | PET hydrolysis [1, 17]: < 3 | PET hydrolysis [1, 18]: < 3 | PET hydrolysis [1, 19]: < 3 | melting temperature [2]: 59.8 C | purified protein yield per well [3]: 526 µg

From the supplement of paper PMC12455559
